Key:
delta7 mice [1] = assay: Plantarflexor histology: muscle fiber typing and cross-sectional area; format: in vivo; settings: GYM329 3 mg/kg SC weekly
Method: Plantarflexor (gastrocnemius, plantaris, and soleus) samples frozen for histology were embedded in cryomatrix on a soft cork surface to enable easy sectioning. Briefly, frozen and embedded tissues were mounted in a cryotome and serially sectioned (10 μm thickness) perpendicular to the fiber axis. Multiple slices (5-10) were taken at different portions of the muscle. The slices were then fixed in ice-cold paraformaldehyde and stored at −80° C. until further use.
For cross-sectional area determination, fixed sections from the mid-belly of the muscle were stained with wheat germ agglutinin (WGA) conjugated to a fluorophore to visualize cell membranes. Sections were digitized using fluorescent microscopy, cell boundaries were traced using predictive software, and cross-sectional area was determined via unbiased automated measurements. For muscle fiber type determination, histological slices were taken from the mid-belly of the soleus and the gastrocnemius muscle. The fixed tissue sections were then blocked using SuperBlock PBS blocking buffer (Thermo Fisher) for 1 h at room temperature. The slide was then washed with PBS and covered with a primary antibody against either MyHC-I, MyHC-IIa, or MyHC-IIb (1:20 dilution; Developmental Studies Hybridoma Database) and incubated overnight at 4° C. The slide was then washed with PBS and the appropriate secondary antibody added for 1 h at room temperature. The slide was washed again in PBS, covered in mounting solution, and a coverslip used to seal the tissue section for fluorescence microscopy measures. Fluorescently-labeled tissue sections were digitized using a fluorescence microscope (Nikon). Images were then analyzed for number of cells using standard counting software.

[2] = Tolerability study in healthy adult subjects; format: in vivo, human; settings: at AUC of 385 μg×d/mL
delta7 mice [3] = assay: Bone microCT of the tibia (cortical and trabecular parameters); format: in vivo; settings: GYM329 3 mg/kg SC weekly
Method: Bone microCT scans were performed in tibias collected at PND52. There was no effect of treatment on cortical or trabecular parameters (FIG. 7 & FIG. 8).

delta7 mice [4] = assay: Body weight and muscle weights at PND52 in pharmacological mouse model of SMA; format: in vivo
Text: The mouse model of SMA (pharmacological model) that has been used in the preclinical trial herein is the delta7 mice treated with a sub-maximal dose of the SMN-upregulating compound SMN-C1 as described in Naryshkin et al, Science 345, 688-693, 2014. […] The advantage of this model is that it has a more severe phenotype than existing mild models but lives into adulthood, which enables testing SMA treatments after disease onset. […] (1) a monotherapy, (2) as a combination therapy with an SMN-upregulating compound administered at the onset of disease, and (3) in a mild model of SMA was don. Dosing of the myostatin inhibitor began at PND24 and continued for 28 days until PND52. In all of these models, GYM329 was administrated once per week at 3 mg/kg (4 subcutaneous injections). A cohort of wild type (WT) littermates treated with the vehicle was included as a reference group. At the study's conclusion, in vivo muscle force frequency, muscle weight, muscle histopathology, bone morphometry, and voluntary running were assessed.
The pharmacological model was generated by treating delta7 mice [FVB.Cg-Tg(SMN2*delta7)4299Ahmb Tg(SMN2)89Ahmb, homozygous knockout mice completely lacking mouse Smnl] with a dose of an SMN-upregulating compound, SMN-C1. For CH1 and CH2, the mice were given a suboptimal dose of SMN-C1 (0.1 mg/kg daily) for the duration of the study. For CH3 and CH4, mice were given a suboptimal dose of SMN-C1 (0.1 mg/kg daily) from PND1-23 and switched to a higher dose (3 mg/kg daily) from PND24-52. For CH5 and CH6, mice were treated with a higher dose of SMN-C1 (3 mg/kg daily) for the duration of the study. Wild type (WT) mice [FVB.Cg-Tg(SMN2*delta7)4299Ahmb Tg(SMN2)89Ahmb, homozygous for the mouse Smnl gene] were used as a reference.
Statistical analysis was performed using SigmaPlot v11. Muscle performance data were analyzed using a two-way repeated measures ANOVA. Post-hoc analysis for pairwise comparisons was performed with a Holm-Sidak test. Body weights, muscle weights, muscle fiber typing data, and cortical and trabecular bone data were analyzed using a one-way ANOVA, with post-hoc analysis performed with a Holm-Sidak test. Data
Body weights were taken daily for SMA mice and weekly for WT mice.

delta7 mice [5] = assay: In vivo masseter muscle function (maximum force, force frequency response); settings: GYM329 3 mg/kg SC weekly, PND52
Text: To assess masseter function, the mouse was anesthetized via inhalation (˜4-5% isoflurane, or to effect) and placed on a thermostatically controlled table where anesthesia was maintained via nose-cone (˜2% isoflurane, or to effect). The mouse was placed supine with custom designed restraint to ensure accessibility of the jaw for testing. The lever arm of the 305C muscle lever system (Aurora Scientific Inc., Aurora, CAN) was positioned in the diastema of the mandible and a suture was run under the middle lower incisors of the mouse and attached to the lever arm. The masseter was contracted by electrical stimulation using surface electrodes.
(§1) On both muscles, a force frequency response was performed. Briefly, a series of stimulations were performed at increasing frequency of stimulation (0.2 ms pulse, 500 ms train duration): 1, 10, 20, 40, 60, 80, 100, and 150 Hz, followed by a final stimulation at 1 Hz.
(§2) Muscle function data were analyzed using Aurora Scientific 615A Dynamic Muscle Analysis Software Suite in high-throughput mode. The software automatically determines a baseline, a maximum, and a minimum. The baseline is then subtracted from the maximum to give the maximal generated force. Each data file was manually inspected to ensure that cursors and fits were assigned properly and corrected when necessary. Data were then grouped and means and standard error of the mean (SEM) calculated. In the plantarflexor muscle group, results were presented as torque, expressed in the unit mN·m, since the assay measures the force produced by the gastrocnemius rotating about the ankle. Force was directly measured in the masseter, expressed in the unit gram.

delta7 mice [6] = assay: In vivo plantarflexor muscle function (maximum torque, force frequency response); settings: PND52
Method: Hind limb muscle performance was measured in vivo with a 305C muscle lever system (Aurora Scientific Inc., Aurora, CAN). Mice were anesthetized via inhalation (˜4-5% isoflurane, or to effect) and placed on a thermostatically controlled table where anesthesia was maintained via nose-cone (˜2% isoflurane, or to effect). Hair was removed from the lower leg by application of depilatory cream for 3 minutes, followed by thorough rinsing
with physiological buffer. The leg was then wiped with a 5% povidone-iodine solution followed by 70% isopropyl alcohol. The knee was isolated using a pin through the tibial head and the foot firmly fixed to a footplate on the motor shaft. Contractions were elicited in the gastrocnemius by percutaneous electrical stimulation of the sciatic nerve.
as §1, §2

[7] = delta 7 mice + high dose SMN-C1 (3 mg/kg PND1-52)
[8] = delta 7 mice + high dose SMN-C1 (3 mg/kg PND1-52), vs SMA Vehicle
[9] = delta 7 mice + low dose SMN-C1 (0.1 mg/kg PND1-52)
[10] = delta 7 mice + low to high dose SMN-C1 (0.1 mg/kg PND1-23, 3 mg/kg PND24-52)
[11] = PND52, delta 7 mice + low dose SMN-C1 (0.1 mg/kg PND1-52)
[12] = delta 7 mice + high dose SMN-C1 (3 mg/kg PND1-52), GYM329 3 mg/kg SC weekly, PND52, vs SMA Vehicle

B1: GYM329: anti-myostatin antibody binding latent myostatin; CDRs SEQ ID 1-6, VH SEQ ID 7, VL SEQ ID 8, heavy chain SEQ ID 9, light chain SEQ ID 10 (antibody)
heavy: QVQLVESGGGLVQPGGSLRLSCAVSGIDLSHDDISWVRQAPGKGLEWVSIISYAGSTYYASWAKGRLTISKDTSKNQVVLTMTNMDPVDTATYYCARGVPAYSHGGDLWGQGTLVTVSSASTKGPSVFPLAPSSKSTSGGTAALGCLVKDYFPEPVTVSWNSGALTSGVHTFPAVLQSSGLYSLSSVVTVPSSSLGTQTYICNVNHKPSNTKVDKKVEPKSCDKTHTCPPCPAPEYLGGDSVFLFPPKPKDVLMISRTPEVTCVVIDVSHEDPEVKFNWYVDGVEVHNAKTKPREEQYNSTYRVVSVLPVLHRDWLNGKEYKCKVSNKALPKPIEKTISKAKGQRREPQVYTLPPSREEMTKNQVSLTCLVKGFYPSDIAVEWESNGQPENNYKTTPPVLDSDGSFFLYSKLTVDKSRWQQGNVFSCSVLHEALHAHTTRKELSLSP
light: DIVMTQSPATLSLSPGERATLSCTTSQSVYHENWLSWFQQKPGQPPKLLIYWASTLAYGVPSRFSGSGSGTDFTLTISSLQPEDAATYYCAGGYGGGRYAFGQGTKVEIKRTVAAPSVFIFPPSDEQLKSGTASVVCLLNNFYPREAKVQWKVDNALQSGNSQESVTEQDSKDSTYSLSSTLTLSKADYEKHKVYACEVTHQGLSSPVTKSFNRGEC
modifications: CDR sequences
Muscle fiber types (delta7 mice [1]; [7]): no significant differences | Mean fiber cross-sectional area (delta7 mice [1]; [8]): increased | Type IIB fiber cross-sectional area (delta7 mice [1]; [8]): increased | Muscle fiber cross-sectional area (delta7 mice [1]; [9]): no differences | Muscle fiber type percentages (delta7 mice [1]; [9]): no differences | Muscle fiber cross-sectional area (delta7 mice [1]; [10]): not affected | Muscle fiber type composition (delta7 mice [1]; [10]): not affected | Tolerability [2]: well-tolerated | Cortical bone parameters (delta7 mice [3]; [11]): no effect | Trabecular bone parameters (delta7 mice [3]; [11]): no effect | Bone volume (trabecular) (delta7 mice [3]; [7]): improved | Cortical cross-sectional thickness (delta7 mice [3]; [7]): improved | Mean total cross-sectional bone area (cortical) (delta7 mice [3]; [7]): improved | Trabecular number (delta7 mice [3]; [7]): improved | Trabecular separation (delta7 mice [3]; [7]): improved | Trabecular thickness (delta7 mice [3]; [7]): improved | Cross-sectional thickness in cortical bone (delta7 mice [3]; [10]): improved | Mean total cross-sectional bone area in cortical bone (delta7 mice [3]; [10]): improved | Trabecular bone parameters (delta7 mice [3]; [10]): no effect | Body weights (delta7 mice [4]; [12]): significantly increased | Gastrocnemius weight (delta7 mice [4]; [12]): significantly increased | Soleus weight (delta7 mice [4]; [12]): significantly increased | TA weight (delta7 mice [4]; [12]): significantly increased | Body weight (delta7 mice [4]; delta 7 mice + low dose SMN-C1 (0.1 mg/kg IP QD PND1-52), GYM329 3 mg/kg SC weekly from PND24, vs SMA Vehicle): not significantly increased | Gastrocnemius weight (delta7 mice [4]; delta 7 mice + low dose SMN-C1 (0.1 mg/kg PND1-52), GYM329 3 mg/kg SC weekly, PND52, p=0.061): trend for increased | Muscle weights (delta7 mice [4]; delta 7 mice + low dose SMN-C1 (0.1 mg/kg PND1-52), GYM329 3 mg/kg SC weekly, PND52, vs SMA Vehicle): did not significantly affect | Muscle weights (delta7 mice [4]; delta 7 mice + low to high dose SMN-C1 (0.1 mg/kg PND1-23, 3 mg/kg PND24-52), GYM329 3 mg/kg SC weekly, PND52): not affected | Masseter maximum force (delta7 mice [5]; at 80, 100, and 150 Hz, delta 7 mice + high dose SMN-C1 (3 mg/kg PND1-52), vs SMA Vehicle): increased | Masseter function (delta7 mice [5]; delta 7 mice + high dose SMN-C1 (3 mg/kg PND1-52), main effect p=0.048 vs SMA Vehicle): improved | Masseter function (maximum force) (delta7 mice [5]; delta 7 mice + low dose SMN-C1 (0.1 mg/kg PND1-52), vs SMA Vehicle): no effect | Masseter function (maximum force) (delta7 mice [5]; [10]): no effect | Plantarflexor muscle function (maximum torque) (delta7 mice [6]; delta 7 mice + high dose SMN-C1 (3 mg/kg PND1-52), GYM329 3 mg/kg SC weekly): not significantly affected | Plantarflexor muscle function (maximum torque) (delta7 mice [6]; delta 7 mice + low dose SMN-C1 (0.1 mg/kg PND1-52), 3 mg/kg SC weekly, main effect p=0.078 vs SMA Vehicle): trend for improvement | Plantarflexor muscle function (maximum torque) (delta7 mice [6]; delta 7 mice + low to high dose SMN-C1 (0.1 mg/kg PND1-23, 3 mg/kg PND24-52), GYM329 3 mg/kg SC weekly): no effect

Source: US20240358704A1, “COMBINED ADMINISTRATION” (Hoffmann-La Roche Inc., priority 2021, published 2024)
